Tested on: pooled phosphopeptide:BSA conjugates (Pools A-D)
Experiment: Coded multiplex phosphopeptide binding assay with pooled peptide:BSA conjugates on 4 spots
Source text: To prepare the Multi-Spot IPR plates, in this example we made use of pools of the peptide:BSA conjugates to coat each of 4 spots per well in a 96 well plate. To achieve this we made the following pools; • Pool A; EGFR-pTyr1148, IkBa-24ppC, Myc-p58Tp62S. • Pool B; EGFR-pTyr992, EGFR-pTyr1148, Smad3C. • Pool C; EGFR-pTyr1068, IkBa-24ppC, Smad3C. • Pool D; EGFR-pTyr992, EGFR-pTyr1068, Myc-p58Tp62S.
This combination of the various peptides results in any single peptide being present in two pools. Each of these four pools is then spotted on to a unique spot in a 4 spot array. In this way any single binding protein with specificity for only one of the peptides would bind to two spots; the identity of the two spots would allow the identification of the peptide involved in the binding reaction.
Typically approximately 120 fmole of peptide:BSA conjugate in 0.25 μl was deposited on each spot of a 4-spot multi-array IPR plates using a BioDot Dispenser (Bio-Dot Inc., vIrvine Calif.). At this stage, the plates were dried then used or stored under desiccated condition. A few hours prior to usage, the plates were rehydrated and blocked with 3% BSA, in PBS.
To test the system the following EST clones IMAGE # 3491843, 4237375, 4398016, 4419252, 3872466, 3907115 were obtained. These clones express the following genes βTRCP1, βTRCP2, Grb2, PLCγ, CBP and Shc1, respectively. […] These DNAs were used to produce proteins as described in the Materials and Methods. Proteins were transferred to a well of the 4 spot peptide-coated and BSA blocked ECL plates. The binding assay (using Sulfo-TAG labeled streptavidin as a detection agent) was carried our according to the procedures described in Example 11.

B1: 3907115: IMAGE clone protein: Shc1 (protein)
chain: MNKLSGGGGRRTRVEGGQLGGEEWTRHGSFVNKPTRGWLHPNDKVMGPGVSYLVRYMGCVEVLQSMRALDFNTRTQVTREAISLVCEAVPGAKGATRRRKPCSRPLSSILGRSNLKFAGMPITLTVSTSSLNLMAADCKQIIANHHMQSISFASGGDPDTAEYVAYVAKDPVNQRACHILECPEGLAQDVISTIGQAFELRFKQYLRNPPKLVTPHDRMAGFDGSAWDEEEEEPPDHQYYNDFPGKEPPLGGVVDMRLREGAAPGAARPTAPNAQTPSHLGATLPVGQPVGGDPEVRKQMPPPPPCPGRELFDDPSYVNVQNLDKARQAVGGAGPPNPAINGSAPRDLFDMKPFEDALRVPPPPQSVSMAEQLRGEPWFHGKLSRREAEALLQLNGDFLVRESTTTPGQYVLTGLQSGQPKHLLLVDPEGVVRTKDHRFESVSHLISYHMDNHLPIISAGSELCLQQPVERKL
- Code (pattern of positive spots): A, B
- Peptide determined from code: EGFR-pTyr1148
- ECL signal, spot A (Pool A, EGFR-pTyr1148, IkBa-24ppC, Myc-p58Tp62S): 260
- ECL signal, spot B (Pool B, EGFR-pTyr992, EGFR-pTyr1148, Smad3C): 318
- ECL signal, spot C (Pool C, EGFR-pTyr1068, IkBa-24ppC, Smad3C): 24
- ECL signal, spot D (Pool D, EGFR-pTyr992, EGFR-pTyr1068, Myc-p58Tp62S): 26

— patent US7063946B2, “Methods, reagents, kits and apparatus for protein function analysis” (Meso Scale Technologies, LLC., priority 2001, dated 2006)
